Assay results taken from the nanobody polyreactivity screen of Harvey et al. (2022).

Assay: yeast display, Sf9 membrane polyspecificity reagent, FACS + sequencing; frameworks hold sequencing errors
In short: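 A synthetic nanobody library was expressed on Saccharomyces cerevisiae BJ5465 by galactose induction for 36–48 hours. The library was stained for 1 hour at 4 °C with 10% biotinylated, detergent-solubilized Sf9 membrane reagent and enriched with streptavidin microbeads before FACS. Low and high (top ~1%) gates were set on anti-HA fluorescence for expression and streptavidin fluorescence for reagent binding, and each polyreactivity label reflects the gate of origin.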

Row | Sequence | polyreactivity (PSR sort gate)
1 | QVQLVESGGGLVQAGGSLRLSCAASGRTFGDYAMGWYRQAPGKERELVAAISSSGGRTYYADSVKGRFTISRDNAKNTVYLQMNSLKPEDTAVYYCAAQSKYYQYYSWGQGTQVTVSS | high polyreactivity
2 | QVQLVESGGGLVQAGGSLRLSCAASGRTLYYNTMGWYRQAPGKERELVASIRWDGGSTNYADSVNGRFTISRDNAKNTVYLQMNSLKPEDTAVYYCNADPGWTELEYDYWGQGTQVTVSS | low polyreactivity
3 | QVQLVESGGGLVQAGGSLRLSCAASGITFVNNSRGCYRQAPVKEREFVAAISQGGGSTYYADSVKGRFTISRDNAKYTVYLQMNSLKPEDTAVYYCAAEIPRWWRFGYWGQGTQVTVSS | low polyreactivity
4 | QVQLVESGGGLVQAGGTLRLSCAASGRTFKKYTMGWYRQAPGKERELVAVITSGGSTYYADSVKGRFTISRDNAKNTVYLQMNSLKPEDTAVYYCAVKYPELRTWGYYYWGQGTQVTVSS | high polyreactivity
5 | QVQLVESGRGLVQAGGSLRLSCAASGSTFVYNVMGWYRQAHGKERELVAAIRRRGGSTYADSVKGRFTITRDNAKNTVYLQMNSLNPEVTAVYYCAAGIPRYWYAGHYDYWGQGTKVTVSS | low polyreactivity
6 | QVQLVESGGGLVQAVGSHRLSCAASGFIFTSYAMGCYRQAPGKERELVAAITRSGGRTYYADSVKGRFTISRDNAKNTVYLQMNSLKPEDTAVYYCAAVTFYQSPARGYWGQGTQVTVSS | high polyreactivity
7 | QVQLVESGGGLVQAGGSLRLSCAASGRTFYYNAMGWYRQAPGKERELVAAISGRGGSTYYADSVKGRFTISRDNAKNTVYLQMNSLKPEDTAVYYCNAVRYKYTGRFGYWGQGTQVTVSS | high polyreactivity
8 | QVQLVESGGGLVQAGGSLRLSCAASGRIFYNYAMGWYRQAPGKERELVAAISGSGGSTYYADSVKGRFTISRDNAKNTVYLQMNSLKPEDTAVYYCNARDVVYLITPYFLVYVNLDYWGQGTQVTVSS | low polyreactivity
9 | QVQLVESGGGVVQAGGSLRLSCAGSGRTFPYYAVGWYRQAPGKERELVAVISSADSTNYADSVKGRFTISRDNAKNTVYLQMNSLKPEDTAVYYCADDAVYYGDDYWGQGTQVTVSS | low polyreactivity
10 | QVQLVESGGGLVQAGGSLRLSCAASGLIFYTYAMGWYRQAPGKERELVAGISRSGTSTRYADSVKGRFTISRDNAKNTVYLQMNSLKPEDTAVYYCNAVGRSKHGYSRSYYWGQGTQVTVSS | high polyreactivity
11 | QVQLVESGGGLVQAGGSLRVSCAASGSIFIRYAMGWYRQAPGKERELVAAIRSSGGSTYADSVKGRFTISRDNAKNTVYLQMISLKPEDTAVYYCAAGRSSKNSYSYPYYYWGQGTQVTVSS | high polyreactivity
12 | QFQLVDSGGGLVQAGGSLRLSCAASGSTFYWYTMGWYREAPGKERELVATITSVGRTNYADSVKGRFTISRDNAKNTVYLEMNSLKPEDTAVYYCAASKARWPRGGSKYYDWGQGTQVTVSS | high polyreactivity
13 | QVQLVESGGGLFQAGGSLRLSCAASGRTFSRYVMGWYRQAPGKERELVAAISRTGGRKYYADSVKGRFTITRDNAKNTVYLQMNSLKPEDTAVYYCNAGTVLISTYDYWGQGTQVTVSS | high polyreactivity
14 | QVQLVESGGGLVQAGGSLRLSCAASGIIFHLYAMGWYRPAPGKERELVAAISWNGSSTYYADSVKGRFTISRDNAKNTVYLQMNSLKPEDTAVYYCAASYGYFEDYGYWGQGTQVTVSS | low polyreactivity
15 | QVQLVESGGGLVQAGGSLRLSCAASGRTFETNAMGWYRQAPGKERELVAAISRSGGSTRYADSVKGRFTISRDNAKNTVYLQMNRLKPEDTAVYYCAVRVGLGGGYWGQGTQVTVSS | high polyreactivity
16 | QVQLVESGGGLVQAGRSLRLSSAASGSTFYYNPMGWYRQAPGKERELVAAISGGDSTYYADSVKGRFTISRDNAKNTVYLQMNSMKPEDTAVYYCAAASRRRSDGRRYGYWGQGTQVTVSS | high polyreactivity

Row | Sequence | polyreactivity (PSR sort gate)
17 | QDQLVESRGGEVQAGGSRRLRCAASGLTFLYNAMGWYRQAPGKERELVAAISQSAGSTYYADSVKGRFTISRDTAKNTVYLQLNSLKPEETAVYYFAADWDTPDLVIYDYWGQGTQVTLSS | low polyreactivity
18 | QVQLVESGGGLVQAGGSLRLSCAASGSIFYYYPMGWYRQAPGKERELVAAINSVGSTYADSVKGRFTISRDNAKNTVYLQMNSLKPEDSAVYYCENYYWGQGTQVTVSS | low polyreactivity
19 | QVQLVESGGGLVQAGGSLRLSCAASGSTFAEYAMGLYRQAPGKERELVAAISRRGGSTYYADSVKGRFTFSRDNAKYSVYLQMNSLKPEDTAVYYCATDGYTPYRWLWWLMDYWGQGTQVTVSS | high polyreactivity
20 | QVQLVESGGGLVQAGGSLRLSCAASGSTFTTYAMGWYRQAPGKERELVAVITDSGGTYYADSVQGRFTISRDNAKNTVYLQMNSLKPEDTAVYYCNRVFPPTDYEFDSWGQGTQVTVSS | low polyreactivity
21 | QVQLVESGGGLVQAGGSLRLSCAASGRTFYSNSMGWYRQAPGKERELVATISWRGGSTYYADSVKGRFTISRDNAKNTVYFQMHSLKPEDTAVYYCAAGYYPYWGQGTQVTVSS | low polyreactivity
22 | QVQLVESGGGLVQAGGSLRLSCAASGSTFSANAMGWYRQAPGKERELVASISRGGGSTYYADSVKGRFTISRDTAKNTVYLQMNSLKPDDTAVYYCAAVYYRRISQGDTQTYYQYNYWGQVTQVTVSS | high polyreactivity
23 | QVQLVESGGGLVQAGGSLRLSCAASGRTFLRYTMGWYRQAPGKERELVAAITYSGGSTYYADSVKGRFTISRDNAKNTVYLQMNSLKPEDTAVYYCAASYLWGYTEYYYWGQGTQVTVSS | high polyreactivity
24 | QVQLVESGGGLVQAGGSLRLSCAASGLTFKRYAMGWYRQAPGKEREFVAAISAGGASTHYADSVKGRFTISRDNAKNTVYLQMNSLKPEDTAVYYCATDYRTFRPSFGYWGQGTQVTVSS | low polyreactivity
25 | QVQLVESGGGLVQAGGSLRLSCAASGSTFPKYAMGWYRQAPGKERELVATISSGTRTYYADSVKGRFTISRDNAKNTVYLQMNSLKPEDTAVYYCAARYQPRKGAHYGYWGQGTQVTVSS | high polyreactivity
26 | QVQLVESGGGLVQAGGSLRLSCAASRYIFVRYAMGWYRQAPGKERELVAPNNSSGGRTYYAHSVKGRFTISRDNAKNTVYLQMNSLKQEDTAVYYCAAYGYYRSGYRALEGYWGQGTQVTVSS | high polyreactivity
27 | QVQLVESGGGLVQAGGSLRLSCAASGSTFVLYAMGWYIQAPGKERELVAAIDSSGGSTYYADSVKGRFTISRDNAKNTVYVQMNSLKPEDTAVYYCAARFKGLLGYWGQGTQVTVSS | high polyreactivity
28 | QVQLVESGGGLVQAGGSLRLSCAASGSIFFRYAMGWYRPAPGKERELVAAISSDGSTYYADSVKGRFTISRDNAKNTVYLQMNSLKPEDTAVYYCNAEQAIFYWYATVTYDYWGQGTQVTVSS | low polyreactivity
29 | QVQLVESGGGLVQAGGSLRLSCAASGFTFVGYAMGWYRQAPGKERELVASINYSGGSTYYADSVKGRFTISRDNAKNTVYVQMNSLNPEDTAVYYCAAGGYPWYLRRGGFACYDYWGQGTQVTVSS | low polyreactivity
30 | QVQLVESGGGLVQAGGSLRLSCAASGIILYVNAMGWYRQAPGKERELVAAISWGGGSTYYADSVKGRFTISRDNAKNTVYLQMNSLKPEDTAVYYCAAEFWSGYPTYTYDYWGQGTQVTVSS | low polyreactivity
31 | QVHLVESGGGLVQAGGSLRLTCAASGGIFHINAMGWYRQAPGKERELVAAITRTTITYADSVKGRFTISRDNAKYTVYLQMNRLKLEDSAVYYCAARDKRTPSGVEITGYDYWGQGSQVTVSS | low polyreactivity
32 | QVQLVESGGGLVQAGGSLRLSCAASGSTFSANAMGWYRQAPGKERELVASISRRGGSTYYADSVKGRFTISRDYAKNTVYLQMNSLKPEDTAVYYCNKRIARQGSPSEYGRSQIGYYYWGQGTQVTVSS | high polyreactivity
